This passage reports binding result and Kd results from article PMC7478360.

In general, Kd refers to the concentration at which binding is half-saturated.

For series [1], the target named is T1, thrombin (human (plasma), UniProt P00734;P00734 328-363;364-622). As to the kind of experiment: graphene FET, Dirac voltage shift.
The target in series [2] is T1, thrombin. As to the kind of experiment: graphene FET, Dirac voltage shift. The source holds these as a separate data set.
The target in series [3] is T1, thrombin. As to the kind of experiment: graphene FET, real-time drain current.

Consider ATCAGGGCTAAAGAGTGCAGAGTTACTTAG (ssDNA, 5' NH2-(CH2)6, amide-coupled to PBASE on graphene) [anti-lysozyme DNA aptamer], for which the binding result in series [1] is “no binding”.

With CCATCTCCACTTGGTTGGTGTGGTTGG (structured_DNA, 5' NH2-(CH2)6, amide-coupled to PBASE on graphene) [anti-thrombin DNA aptamer], the values for the Kd in series [2] and in series [3] were 0.376 nM and 0.732 nM, respectively.
